Data taken from US20240270826A1 (NATIONAL RESEARCH COUNCIL OF CANADA, published 2024).

Experiments:
[1] = target: SARS-CoV-2 spike protein S on live virus, Alpha variant (SARS-CoV-2 (Alpha variant), UniProt P0DTC2 14-1273); test: cell-based or functional assay
[2] = target: Human SARS-CoV-2 Omicron (B.1.1.529) S (SARS-CoV-2 (Omicron variant)); test: flow cytometry SVNA: VHH-Fc inhibits S binding to ACE2 on Vero E6 cells

Binder	LVNA IC50 [1] [nM]	IC50 [2] [nM]
NRCoV2-14 VHH-Fc (Fc fusion, bivalent VHH-Fc) EVQLVSSGGGLVQAGGSLRLSCEASGTTFSHYAVGWYRQAPGKQREWVASISVFGSTTYGGSVAGRFTISRDNDKNTVDLQMNSLKPEDTAVYYCHAVNADIGGDYWGQGTQVTVSS [NRCoV2-14 VHH-Fc, listing 1 of 2 here]	0.88	
NRCoV2-14 VHH-Fc (Fc fusion, bivalent VHH-Fc) EVQLVSSGGGLVQAGGSLRLSCEASGTTFSHYAVGWYRQAPGKQREWVASISVFGSTTYGGSVAGRFTISRDNDKNTVDLQMNSLKPEDTAVYYCHAVNADIGGDYWGQGTQVTVSS [NRCoV2-14 VHH-Fc, listing 2 of 2 here]		5.2
NRCoV2-MRed04 VHH-Fc (Fc fusion, bivalent VHH-Fc) EVQLVESGGGLVQPGRSLRLSCAASGNSFSISTMGWFRQAPGKERELVASIWSDTTTSYADSVKGRFTISTDNTRTKVYLQMSSLNPEDTAVYYCAADRGFVVRGQYDYWGQGTQVTVSS	4.5	
NRCoV2-18 VHH-Fc (Fc fusion, bivalent VHH-Fc) EVQLVESGGGLVQAGGSLRLSCVASGITISGYNMAWWRQTRGKQTERVAFINSGGSTTYSDSVKGRFTISRDNGKNTAYLQMNSLNAEDTADYFCSLHTSHDYWGQGTQVTVSS	2.82	
NRCoV2-10 VHH-Fc (Fc fusion, bivalent VHH-Fc) QLQLQESGGGLVQPGGSLTLSCAASGNTFSRSNMHWYRQAPGAQREWVAAISSRGISTYAYSAKGRFTISRDNAKNTVSLQMNSLKPEDTAVYYCYAADDLGDYWGQGTQVTVSS [NRCoV2-10 VHH-Fc, listing 1 of 2 here]	0.47	
NRCoV2-10 VHH-Fc (Fc fusion, bivalent VHH-Fc) QLQLQESGGGLVQPGGSLTLSCAASGNTFSRSNMHWYRQAPGAQREWVAAISSRGISTYAYSAKGRFTISRDNAKNTVSLQMNSLKPEDTAVYYCYAADDLGDYWGQGTQVTVSS [NRCoV2-10 VHH-Fc, listing 2 of 2 here]		4.3
NRCoV2-MRed05 VHH-Fc (Fc fusion, bivalent VHH-Fc) EVQLVESGGGLVQPGGSLRLSCAASGFTLDYYAIGWFRQAPGKEREGVSCISSSDGSTLYADSVKGRFTISRDNAKNTVYLQMNSLKPEDTAVYYCATGPQAYYSGSYYFQCPQAGMDYWGKGTQVTVSS	0.13	
NRCoV2-15 VHH-Fc (Fc fusion, bivalent VHH-Fc) EVQLVSSGGGLVEAGGSLRLSCIASGSTSGRNTMGWFRQAPGKQREWVAIVSTSGATNYAGSVKGRFTLSRDNAKNAVYLQMNNLKPEDTAVYYCYAAYGGGGDYWGQGTQVTVSS [NRCoV2-15 VHH-Fc, listing 1 of 2 here]	0.16	
NRCoV2-15 VHH-Fc (Fc fusion, bivalent VHH-Fc) EVQLVSSGGGLVEAGGSLRLSCIASGSTSGRNTMGWFRQAPGKQREWVAIVSTSGATNYAGSVKGRFTLSRDNAKNAVYLQMNNLKPEDTAVYYCYAAYGGGGDYWGQGTQVTVSS [NRCoV2-15 VHH-Fc, listing 2 of 2 here]		3
NRCoV2-07 VHH-Fc (Fc fusion, bivalent VHH-Fc) QVQLVQSGGGLVQPGGSLRLSCAASGVTLDYYAIGWFRQAPGKEREAVSCISSNGRRNHYVASVRGRFTISRDNAKSTVYLQMNSLKPEDTAVYYCAAVQDVHGDNYYCTSPNEYNVWGQGTQVTVSS	0.42	
NRCoV2-SR13 VHH-Fc (Fc fusion, bivalent VHH-Fc) EVQLVESGGGLVTTGGSLRLSCATSGSRFGSKHMAWYRQAPGKQRDLVAAISSGGSTHYGSSVKGRFTISRDNAKSTVYLQMNSLNPEDTAVFYCNMGGWDYRSNTYIPGSRSDYWGQGTQVTVSS	~100	
NRCoV2-05 VHH-Fc (Fc fusion, bivalent VHH-Fc) EVKLVQSGGGLVQPGGSLRLSCAASGFIFSNYAMNWVRQAPGKGLEWVSGINSGGGDTRYADSVKGRFTVSRDNAKNTLYLQMNSLKPEDTGVYYCSKGPVSSYYGSGYDYRGQGTQVTVSS	0.03	
NRCoV2-17 VHH-Fc (Fc fusion, bivalent VHH-Fc) EVQLQQSGGGLVQTGGSLRLSCAAAGSPFSQLAMSWYRQISGKERAWVASISPTGNRSYSKIAKGRFTISRDNAKNTVTLQMTSLKPEDTAAYICQAANVNGGDYWGQGTQVTVSS [NRCoV2-17 VHH-Fc, listing 1 of 2 here]	0.61	
NRCoV2-17 VHH-Fc (Fc fusion, bivalent VHH-Fc) EVQLQQSGGGLVQTGGSLRLSCAAAGSPFSQLAMSWYRQISGKERAWVASISPTGNRSYSKIAKGRFTISRDNAKNTVTLQMTSLKPEDTAAYICQAANVNGGDYWGQGTQVTVSS [NRCoV2-17 VHH-Fc, listing 2 of 2 here]		3.4
NRCoV2-1d VHH-Fc (Fc fusion, bivalent VHH-Fc) EVQLVESGGGSVQPGGSLRLSCAASGSTLDYYAIGWFRQAPGKEREWVSSVSSSDGNTLYADSVKGRFTISRDNAKNTVYLQMNSLKAEDTAVYVCAADYSMRPFAVGRWHRDYEYWGQGTQVTVSS	0.37	
NRCoV2-04 VHH-Fc (Fc fusion, bivalent VHH-Fc) AVQLVDSGGGLVQPGGSLRLSCAASGSPFSNVVMAWYRQAPGKQRERVAFISGGGIADYIMSVKGRFTISRDNAKNTVYLQMNSLKPEDTAVYYCWSSYESTWGQGTQVTVSS [NRCoV2-04 VHH-Fc, listing 1 of 2 here]	2.3	
NRCoV2-04 VHH-Fc (Fc fusion, bivalent VHH-Fc) AVQLVDSGGGLVQPGGSLRLSCAASGSPFSNVVMAWYRQAPGKQRERVAFISGGGIADYIMSVKGRFTISRDNAKNTVYLQMNSLKPEDTAVYYCWSSYESTWGQGTQVTVSS [NRCoV2-04 VHH-Fc, listing 2 of 2 here]		18.4
NRCoV2-20 VHH-Fc (Fc fusion, bivalent VHH-Fc) EVQLQQSGGGLVQPGGSLRLSCAASGRTFSNYVVGWFRQAPQAPGKDHEFVAVISGSDTETYYADSVKGRFTISRDNAKNTVYLQMNSLKPEDTAVYYCAADRGMSYYYTRATEYYYWGQGTQVTVSS [NRCoV2-20 VHH-Fc, listing 1 of 2 here]	1.94	
NRCoV2-20 VHH-Fc (Fc fusion, bivalent VHH-Fc) EVQLQQSGGGLVQPGGSLRLSCAASGRTFSNYVVGWFRQAPQAPGKDHEFVAVISGSDTETYYADSVKGRFTISRDNAKNTVYLQMNSLKPEDTAVYYCAADRGMSYYYTRATEYYYWGQGTQVTVSS [NRCoV2-20 VHH-Fc, listing 2 of 2 here]		13.1
NRCoV2-12 VHH-Fc (Fc fusion, bivalent VHH-Fc) EVQLQQSGGGLVQAGGSLRLSCAASGRTFRNYVMGWFRQAPQAPGKDHEFVAAISWGGTEIYYADSVKGRFTISRDNAKNTVYLQMNSLKPEDTAVYYCAADRGLSYYYTRTTEYNYWGQGTQVTVSS [NRCoV2-12 VHH-Fc, listing 1 of 2 here]		17.2
NRCoV2-02 VHH-Fc (Fc fusion, bivalent VHH-Fc) EVQLVESGGGLVQAGGSLRLSCAASGFTFSNYAMNWVRQAPGKGLEWVSGISGRGDDTRYADSVKGRFTISRDNAKNTLFLQMRSLRPEDTGVYRCTKGPDLYYFGSGYSDRGQGTQVTVSS	0.09	
NRCoV2-SR01 VHH-Fc (Fc fusion, bivalent VHH-Fc) EVQLVQSGGGSVQAGGSLRLSCVASGFTFDNYAIGWFRQAPGKEREGVSCISGNGGVTIYADSVKGRFTISRDNAKNLVYLQMNSLKPEDTAVYYCAATGIRSTWSVYGCSRLAGPYDYWGQGTQVTVSS [NRCoV2-SR01 VHH-Fc, listing 1 of 2 here]	3.77	
NRCoV2-SR01 VHH-Fc (Fc fusion, bivalent VHH-Fc) EVQLVQSGGGSVQAGGSLRLSCVASGFTFDNYAIGWFRQAPGKEREGVSCISGNGGVTIYADSVKGRFTISRDNAKNLVYLQMNSLKPEDTAVYYCAATGIRSTWSVYGCSRLAGPYDYWGQGTQVTVSS [NRCoV2-SR01 VHH-Fc, listing 2 of 2 here]		4.4
NRCoV2-11 VHH-Fc (Fc fusion, bivalent VHH-Fc) EVQLVSSGGGLVQPGGSLRLSCAASGSSLDSYSVSWFRQAPGKEREWISFISRYYSSTYYTDSVKGRFTTSRDGDQKTVHLQMNSLKPEDTAVYYCAARSRDFSSPFSATDTYTSWGQGTQVTVSS [NRCoV2-11 VHH-Fc, listing 1 of 2 here]	2.3	
NRCoV2-11 VHH-Fc (Fc fusion, bivalent VHH-Fc) EVQLVSSGGGLVQPGGSLRLSCAASGSSLDSYSVSWFRQAPGKEREWISFISRYYSSTYYTDSVKGRFTTSRDGDQKTVHLQMNSLKPEDTAVYYCAARSRDFSSPFSATDTYTSWGQGTQVTVSS [NRCoV2-11 VHH-Fc, listing 2 of 2 here]		8.8
NRCoV2-12 VHH-Fc (Fc fusion, bivalent VHH-Fc) EVQLQQSGGGLVQAGGSLRLSCAASGRTFRNYVMGWFRQAPQAPGKDHEFVAAISWGGTEIYYADSVKGRFTISRDNAKNTVYLQMNSLKPEDTAVYYCAADRGLSYYYTRTTEYNYWGQGTQVTVSS [NRCoV2-12 VHH-Fc, listing 2 of 2 here]	1.35	
NRCoV2-SR02 VHH-Fc (Fc fusion, bivalent VHH-Fc) EVQLVDSGGGLVQAGGSLRLSCTASEFTLNYYSIGWFRQSPGKEREGVSCIRYSGGGIDYADSVKGRFTISRDNAKNTVYLTMNSLKPEDTAVYYCAADRLYSRACPTAGGRNYWGQGTQVTVSS	9.05	
